Measurements: the RNAGym collection of RNA variant scans (doi:10.1093/molbev/msab373)

B1: Azoarcus group I ribozyme (parent)
chain: GUGCCUUGCGCCGGGAAACCACGCAAGGGAUGGUGUCAAAUUCGGCGAAACCUAAGCGCCCGCCCGGGCGUAUGGCAACGCCGAGCCAAGCUUCGGCGCCUGCGCCGAUGAAGGUGUAGAGACUAGACGGCACCCACCUAAGGCAAACGCUAUGGUGAAGGCAUAGUCCAGGGAGUGGCGAAAGUCACACAAACCGG

Variants of: B1
Assay: reverse-splicing fitness (ratio to wild type); higher = more active; in vitro selection; Mg2+ level not given
How it was run: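 An in vitro group I ribozyme library with randomized positions was T7-transcribed and gel-purified. In triplicate, 10 pmol RNA in EPPS pH 7.5 was reacted with 50 pmoles of a 30-nt RNA substrate for 1 h at 37 °C across several added MgCl2 levels (1–48 mM), then stopped with EDTA. Products were reverse transcribed from a substrate-complementary primer, PCR-amplified and sequenced (HiSeq 4000). Fitness is a variant's read proportion after selection over that before, normalised to wild type.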

Variant	reverse-splicing fitness
C82A A111C A120C A145U	0.0241
C82A A111C A120C A145G	0.0258
C82A A111C A120C A145G C150A C169G U176A	0.0172
C82A A111C A120C A145G C150A C169G U176C	0.0238
C82A A111C A120C A145G C150A C169G U176G	0.00821
C82A A111C A120C A145U C150U C169A U176A	0.0153
C82A A111C A120C A145U C150U C169A U176G	0.00742
C82A A111C A120C A145U C150U C169A U176C	0.0129
C82A A111C A120C A145U C150U C169G U176C	0.015
C82A A111C A120C A145U C150U C169G U176A	0.0127
C82A A111C A120C A145U C150U C169G U176G	0.00815
C82A A111C A120G A145G C150G C169A U176A	0.0133
C82A A111C A120G A145G C150G C169A U176C	0.0113
C82A A111C A120G A145G C150G C169A U176G	0.00771
C82A A111C A120G A145C C169A U176A	0.00969
C82A A111C A120G A145C C169A U176C	0.00724
C82A A111C A120G A145C C169A U176G	0.0044
C82A A111C A120C A145U C150G	0.00822
C82A A111C A120C A145U C150A	0.00979
C82A A111C A120C A145U C150U	0.0202
C82A A111C A120C A145U C150A C169A U176G	0.00859

Variant	reverse-splicing fitness
C82A A111C A120C A145U C150A C169A U176A	0.0155
C82A A111C A120C A145U C150A C169A U176C	0.0154
C82A A111C A120C A145G C150A C169G	0.00833
C82A A111C A120C A145G C150A C169A	0.0106
C82A A111C A120C A145G C150A C169U	0.00994
C82A A111C A120G	0.0149
C82A A111C A120C C150U C169A U176C	0.0126
C82A A111C A120C C150U C169A U176A	0.0146
C82A A111C A120C C150U C169A U176G	0.00849
C82A A111C A120G A145C C150U U176A	0.00894
C82A A111C A120G A145C C150U U176C	0.0119
C82A A111C A120G A145C C150U U176G	0.00502
C82A A111C A120G A145C C150U C169G U176A	0.0217
C82A A111C A120G A145C C150U C169G U176C	0.0133
C82A A111C A120G A145C C150U C169G U176G	0.00558
C82A A111C A120C A145C U176G	0.00663
C82A A111C A120C A145C U176A	0.0123
C82A A111C A120C A145C U176C	0.0149
C82A A111C A120G A145G C150A U176A	0.00969
C82A A111C A120G A145G C150A U176G	0.00772
C82A A111C A120G A145G C150A U176C	0.0185
